According to paper PMC8699970:

Tests used:
[1] = molecular target: AjNLRC4 (native, on coelomocytes) (Apostichopus japonicus (endogenous in coelomocytes)); test: cross-linking; sea cucumbers injected with V. splendidus for 30 min; coelomocytes treated with BS3 (5 mM, 4°C, 1 h); SDS-PAGE and western blotting with anti-AjNLRC4 antibodies
[2] = molecular target: GST-tagged AjNLRC4-IN (intracellular fragment of AjNLRC4 with the NACHT domain) (Apostichopus japonicus); test: MST; Monolith NT; labeled GST-AjNLRC4-IN (10 μM) constant, a range of concentrations of His-β-Actin; 50 mM Tris-HCl pH 7.8, 150 mM NaCl, 10 mM MgCl2, 0.05% Tween-20; 10 min incubation; 20% LED power, 80% MST power

**Q.** How did the oligomeric state (subunits per complex) [1] turn out when “AjNLRC4 (native, on coelomocytes) (receptor)” was run?
**A.** 2

**Q.** Which Kd [2] does the source give for His-tagged Ajβ-actin (natural protein) here?
**A.** 5.87 µM
